Measurements published in publication PMC5316805, “Potent single-domain antibodies that arrest respiratory syncytial virus fusion protein in its prefusion state” (Nature Communications, 2017).

B1: F-VHH-L66 (VHH)
VHH: QVQLQESGGGLVQPGGSLRLSCAASGFTLDYYYIGWFRQAPGKEREGVSCISSSHGSTYYADSVKGRFTISRDNAKNTVYLQMNSLKPEDTAVYYCATVAVAHFRGCGVDGMDYWGKGTQVTVSS
notes: llama VHH; also in PDB 5TOK; Disulfide between Cys50 (CDR2) and Cys100c (CDR3), Kabat numbering; source: P. pastoris GS115, secreted, purified (ammonium sulfate precipitation, HisTrap HP, Superdex 75); not shown: His6, C-terminal, kept
B2: F-VHH-4 (VHH)
VHH: QVQLQESGGGLVQPGGSLRLSCAASGFTLDYYYIGWFRQAPGKEREAVSCISGSSGSTYYPDSVKGRFTISRDNAKNTVYLQMNSLKPEDTAVYYCATIRSSSWGGCVHYGMDYWGKGTQVTVSS
notes: llama VHH; also in PDB 5TP3 and 5TOJ; Disulfide between Cys50 (CDR2) and Cys100c (CDR3), Kabat numbering; the Pichia-made protein was used in the complex crystals; also called clone 4; source: P. pastoris GS115, secreted, purified (ammonium sulfate precipitation, HisTrap HP, Superdex 75); not shown: His6, C-terminal, kept

Columns and labels:
[1] = molecular target: RSV A2 F, full length, on RSV A2-infected cells and virions (human respiratory syncytial virus A2, UniProt P03420); experiment: cell-based or functional assay
[2] = molecular target: T1, prefusion-stabilized RSV F (DS-Cav1) with a C-terminal Strep-tag II and 6X HisTag (human respiratory syncytial virus A2 …, stabilised); experiment: SPR; DS-Cav1 captured by its His tag on an NTA chip to ~530 RU each cycle (Biacore X100); VHH 2-fold dilutions 5 nM to 39.1 pM in HBS-P+; double-reference subtracted, 1:1 binding model (Scrubber); conditions: both partners purified
T1 construct: RSV fusion (F) protein, F2 subunit (N-terminal cut product of F0) of DS-Cav1; RSV fusion (F) protein, soluble part of the F1 subunit (C-terminal cut product of F0) of DS-Cav1; also called prefusion F; prefusion RSV F; source: purified; not shown: Strep-tag II, C-terminal, kept; His6, C-terminal, kept; copies: 3 + 3

Binder	plaque-reduction neutralisation of RSV A2 and RSV B49 on Vero cells, IC50 [1] [nM]	Kd [2] [nM]	koff [2] [s⁻¹]	kon [2] [M⁻¹ s⁻¹]
B1	< 0.1	0.154	5e-05	330000
B2	< 0.1	< 0.018	< 1e-05	570000
